Assay: yeast display, Sf9 membrane polyspecificity reagent, FACS + sequencing; frameworks hold sequencing errors
In short: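 Galactose induction of a Saccharomyces cerevisiae BJ5465 synthetic nanobody display library ran 36–48 hours. The cells were then stained for 1 hour at 4 °C with 10% biotinylated, detergent-solubilized Sf9 membrane reagent, pulled down on streptavidin microbeads and FACS-sorted into low and high (top ~1%) gates on expression and reagent-binding fluorescence. Labels for polyreactivity follow the gate of origin.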

Sequence | polyreactivity (PSR sort gate)
QVQLVESGGGLVQAGGSLRLSCAASGITFQIYAMGWYRQAPGKERELVAAISRSGGSSTNYADSVKGRFTISRDNAKNTVYLQMYSLNPEDTAVYYCAAVSPYTGGANDYWGQGTQVTVSS | high polyreactivity
QVQLVESGGGLVQAGGSLRLSCAASGITFQNYAMGWYKQAPGKERELVAAITRSGGRTYYADSVKGRFTISRDNAKNTVYLQMNSLKPEDTAVYYCAVYGIGRPYWYDYWGQGTQLTVSS | high polyreactivity
QVQLVESGGGLVQAGGSLRLSCAASGITFQRYAMGWYRQAPGKERELVAAISWSGGSTYYADSVKGRFTISRDNAKNTVYLQMNSLKPVDTAVYYCAAELSVSTSHGVDYWGQGTQVTVSS | high polyreactivity
QVQLVESGGGLVQAGGSLRLSCAASGITFQSNAMGWYRQAPGKERELVAGISGSGTSTYYADSVKGRFTISRDNAKNTVYLQMNSLKPEDTAVYYCAAAQSKYSFYWGDYYYWGQGTQVTVSS | high polyreactivity
QVQLVESGGGLVQAGGSLRLSCAASGITFQYYAMGWYRQAPGKERELVAAISGGGSTNYADSVKGRFTISRDNAKNTVYLQMNSLKPEDTAVYYCAAADLNLELDYWGQGTQVTVSS | high polyreactivity
QVQLVESGGGLVQAGGSLRLSCAASGITFRGYAMGWYRQAPGKERELVADITWNGGSTYYADSVKGRFTISRDNAKNTVYLQMNSLKPEDTAVYYCAADGYPIYWSSYRFYYWGQGTQVTVSS | high polyreactivity
QVQLVESGGGLVQAGGSLRLSCAASGITFRHYAMGWYRQAPGKERELVAAITSRGGSTYYADSVKGRFTISRDNAKNTVYLQMNSLKPEDTAVYYCAARRRLRAPDDYWGQGTQVTVSS | high polyreactivity
QVQLVESGGGLVQAGGSLRLSCAASGITFRLYAMGWSRQAPGKEREFVAAISRRGGSTYYADSVKGRFTISRDNAKNSVYLQMNSLKPEDTAVYYCARYGLVYALGYWGQGTQVTVSS | high polyreactivity
QVQLVESGGGLVQAGGSLRLSCAASGITFRQNTMGSYRQAPGKEGELVAAITSSGRTYYADSVKGRFTISRDNAKNTVYLQMNSLKPEDSAVYYCAADTYYFGYGYWGQGTQVTVSS | high polyreactivity
QVQLVESGGGLVQAGGSLRLSCAASGITFRQYAMGWYRQAPGKEREFVAAISWIGGSTYYADSVKGRFTISRDTAKNTVYLQMNSLKPEDTAVYYCAAETFTDYDYWGQGTQVTVSS | high polyreactivity
QVQLVESGGGLVQAGGSLRLSCAASGITFRRNAMGWYRQAQGKESQLVAAITSRGGSTYYADSVKWRFTISRDNAKNTVYLQMISMKPEDTAVYYCNAGGVDRVDRDYWGQGTQVTVSS | high polyreactivity
QVQLVESGGGLVQAGGSLRLSCAASGITFRRYTMGWYRQAPGKEMELVAAISRIGGSTYYADSVKGRFTISRDNAKNTVYLQMNSLKPEDTAVYYCARAGRVQPGSEDDYWGQGTQVTVSS | high polyreactivity
QVQLVESGGGLVQAGGSLRLSCAASGITFRSYAMGWYRQAPGKERELVAAISQSGTSTYYADSVKGRFTISRDNAKNTVYLQMNSLKPEDTAVYYCAASYYLKLRRRRYDYWGQGTQVTVSS | high polyreactivity
QVQLVESGGGLVQAGGSLRLSCAASGITFRWYAMGWYRQAPGKERELVASISSGGITTYADSVKGRFTISRDNAKNTVYLQMNSLKPEDTAVDYCNAVGHTSIRRALDILDYWGQGTQVTVSS | high polyreactivity
QVQLVESGGGLVQAGGSLRLSCAASGITFRYSAMGWYRQAPGKERELVAVISTSGGSTYYADSVKGRFTISRDNAKNTVYLQMNSLKPEDTAVYYCAARYTYWGLLRYDYWGQGTQVTVSS | high polyreactivity
QVQLVESGGGLVQAGGSLRLSCAASGITFRYYAMGLYRQAPGKERELVAAITRSASSTFYADSVKGRFTISRDNAKNTVYLQMNSLKPEVTAVYYCAAESVRAVFPDRYKYWGQGTQVTVSS | high polyreactivity

Sequence | polyreactivity (PSR sort gate)
QVQLVESGGGLVQAGGSLRLSCAASGITFRYYAMGWYRQAPGKERELVAAISRSGGRTYYADSVKGRFTISRDNAKNTVYLQMNSLKPEDTAVYYCAVAVRRGRAYDYWGQGTQVTVSS | high polyreactivity
QVQLVESGGGLVQAGGSLRLSCAASGITFRYYAMGWYRQAPGKERELVAAITRSGSTTYADSVKGRFTISRDNAKNTVYLQMNSLKPEDTAVYYCAVDYYYLTGGVDYWGQGTQVTVSS | low polyreactivity
QVQLVESGGGLVQAGGSLRLSCAASGITFRYYAMGWYRQAPGKERELVAVISTSGGSTYYADSVKGRFTISRDNAKNTVYLQMNSLKPEDTAVYYCAARYTYWGLLRYDYWGQGTQVTVSS | high polyreactivity
QVQLVESGGGLVQAGGSLRLSCAASGITFRYYAMGWYRQAPGKERELVAVISTSGGSTYYADSVKGRFTISRDNAKNTVYLQMNSLKPEDTAVYYCAVVWPYSERYYYWGQGTQVTVSS | high polyreactivity
QVQLVESGGGLVQAGGSLRLSCAASGITFRYYAMGWYRQAPGKERELVAVITYSGSRTYYADSVKGRFTISRDNAKNTVYLQMNSLKPEDTAVYYGATKGAKRVIGETAYDYWGQGTQVTVSS | high polyreactivity
QVQLVESGGGLVQAGGSLRLSCAASGITFRYYTMGWYRQAPGKERELVAAITWSGSSTYYADSVKGRFTISRDNAKNTVYLQMNSLKPEDTAVYYCNAVPYDYLADYWGQGTQVTVST | low polyreactivity
QVQLVESGGGLVQAGGSLRLSCAASGITFSFYAMGWYRPAPGKERELVAAINGRGGRTYYADSVKGRFTISRDNAKNTVYLQMNSLKPEDTAVYYCAAVVWRTDYDYWGQGTQVTVSS | low polyreactivity
QVQLVESGGGLVQAGGSLRLSCAASGITFSFYAMGWYRQAPGKERELVAGLTRSGGDTYYADSVKGRFTISRDNAKNTVYLQMNSLKPEDTAVYYCAAAWFFYRRQYTFFAGRMDYWGQGTQVTVSS | high polyreactivity
QVQLVESGGGLVQAGGSLRLSCAASGITFSGNAMGWYRQAPGKERELVAAISGGGSTNYADSVKGRFTISRDNAKNTVYLQMNSLKPEDTAVYYCAAEIIFWYLYRDYYYWGQGTQVTVSS | low polyreactivity
QVQLVESGGGLVQAGGSLRLSCAASGITFSNYAIGWYRQAPGKERELVAAISKRGGSTYYADSVKGRFTISRDNAKNTVYLQMNSLKPEDTAVYYCAAAGVRVYVRSGLDYWGQGTQVTVSS | high polyreactivity
QVQLVESGGGLVQAGGSLRLSCAASGITFSPSAMGWCRQAPGKERELVAAITSGGSTNYADSVKGRFTISRDNAKNTVYLQMNSLKPEDTAVYYCAAGRWPAPWYTRNYWGQGTQVTVSS | low polyreactivity
QVQLVESGGGLVQAGGSLRLSCAASGITFSPYAMGWYRQAPGKERELVAAISSRGGSTYYADSVKGRFTISRDNAKNTVYLQMNSLKPEDTAVYYCNALTFVRYLFHYTYWGQGTQVTVSS | high polyreactivity
QVQLVESGGGLVQAGGSLRLSCAASGITFSSYAMGWYRQAPGKERELVAGITRRGGITYYADSVKGRFTISRDNAKNTVYLQMNSLKPEDTAVYYCAATHRFRTGSPDGGYGYWGQGTQVTVSS | high polyreactivity
QVQLVESGGGLVQAGGSLRLSCAASGITFSSYTMGGYRQAPGKERELVARINSGGTTNYADSVKGRFTISRDNAKNTVYLQMNSLKPEDTAVFYCAAEWVSWRWAHKFDYWGQGTQVTVSS | high polyreactivity
QVQLVESGGGLVQAGGSLRLSCAASGITFSVYAMGWYRQAPGKEWELVASISSGGTSTYYADSVKGRFTISRDNAKNTVYLQMNSLKPEDTAVYYCAAYSYYTGDQYSYDYWGQGTQVTVSS | low polyreactivity
QVQLVESGGGLVQAGGSLRLSCAASGITFSYNDMGWYRPAPGKEREFVATIRGSTARTYNADSVKGRFTISRDNAKNTVYLQMNSLKPEDTAVYYGAAGKYWYGYDYWGQGTQVTVSS | high polyreactivity

From the nanobody polyreactivity screen of Harvey et al. (2022)
